T1: recombinant human E-Cad (Gln23 - Pro621 fused to human IgG Fc) (human, UniProt P12830 23-621)
T1 sequence (looked up): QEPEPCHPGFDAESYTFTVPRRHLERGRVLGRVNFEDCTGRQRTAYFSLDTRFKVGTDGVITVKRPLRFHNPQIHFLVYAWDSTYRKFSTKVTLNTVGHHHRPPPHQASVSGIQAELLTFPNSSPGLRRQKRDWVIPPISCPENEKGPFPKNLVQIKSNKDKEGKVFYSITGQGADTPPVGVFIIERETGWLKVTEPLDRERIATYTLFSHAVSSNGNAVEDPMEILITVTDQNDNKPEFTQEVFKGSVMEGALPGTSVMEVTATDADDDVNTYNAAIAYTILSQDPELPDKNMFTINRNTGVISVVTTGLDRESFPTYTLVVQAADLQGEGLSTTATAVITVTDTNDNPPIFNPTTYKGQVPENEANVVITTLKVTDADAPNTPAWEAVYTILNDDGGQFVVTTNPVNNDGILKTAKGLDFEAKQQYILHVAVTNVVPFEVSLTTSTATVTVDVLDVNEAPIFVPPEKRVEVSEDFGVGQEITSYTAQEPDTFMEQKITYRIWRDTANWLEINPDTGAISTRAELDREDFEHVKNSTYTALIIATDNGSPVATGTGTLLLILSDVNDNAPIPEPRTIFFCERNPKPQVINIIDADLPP

T2: recombinant human VE-cad (Asp48-Gln593 fused to human IgG Fc) (human, UniProt P33151 48-593)
T2 sequence (looked up): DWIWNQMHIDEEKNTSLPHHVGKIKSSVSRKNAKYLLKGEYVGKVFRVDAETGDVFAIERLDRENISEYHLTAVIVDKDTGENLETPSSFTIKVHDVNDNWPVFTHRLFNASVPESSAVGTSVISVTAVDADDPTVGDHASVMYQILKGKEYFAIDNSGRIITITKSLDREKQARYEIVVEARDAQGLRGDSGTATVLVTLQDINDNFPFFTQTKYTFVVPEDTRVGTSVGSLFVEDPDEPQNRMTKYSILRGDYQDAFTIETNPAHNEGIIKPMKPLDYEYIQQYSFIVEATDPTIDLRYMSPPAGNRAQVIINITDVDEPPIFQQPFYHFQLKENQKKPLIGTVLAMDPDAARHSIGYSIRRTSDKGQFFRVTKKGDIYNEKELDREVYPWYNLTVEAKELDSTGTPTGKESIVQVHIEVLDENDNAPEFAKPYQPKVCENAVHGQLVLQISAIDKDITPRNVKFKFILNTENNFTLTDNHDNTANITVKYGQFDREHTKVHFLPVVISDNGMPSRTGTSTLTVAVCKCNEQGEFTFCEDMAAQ

B1: recombinant LIC10831, histidine tag removed (natural protein)
chain: EEPGTYRDLTKALQNPLEVRVLDLSRQELKTLPIEIGKLKNLQRLYLHYNQLTVLPQEIEQLKNLQLLYLRSNRLTTLPKEIEQLKNLQVLDLGSNQLTVLPQEIEQLKNLQLLYLHSNRLTTLSKDIEQLQNLKSLDLSNNQLTTLPNEIEQLKNLKSLYLSENQFATFPKEIGQLQNLKVLFLNNNQITILPNEIAKLKKLQYLYLSDNQLITLPKEIEQLKNLQTLDLSYNQLTILPKEVGQLENLQTLDLRNNQLKTLPKEIEQLKNLQTLFLSNNQLTILPQEIGKLKNLLWLSLVYNQLTTLPNEIEQLKNLQTLYLNNNQFSSQEKKRIRKLLPKCQIYFD

How the values were obtained:
[1] = molecular target: E-cadherin (Homo sapiens) (UniProt P12830); settings: cited from earlier work
[2] = molecular target: T1, recombinant human E-Cad (Gln23 - Pro621 …); experiment: SPR
[3] = molecular target: T2, recombinant human VE-cad (Asp48-Gln593 …); experiment: SPR

Chain of E-cadherin (Homo sapiens) (P12830 155-709): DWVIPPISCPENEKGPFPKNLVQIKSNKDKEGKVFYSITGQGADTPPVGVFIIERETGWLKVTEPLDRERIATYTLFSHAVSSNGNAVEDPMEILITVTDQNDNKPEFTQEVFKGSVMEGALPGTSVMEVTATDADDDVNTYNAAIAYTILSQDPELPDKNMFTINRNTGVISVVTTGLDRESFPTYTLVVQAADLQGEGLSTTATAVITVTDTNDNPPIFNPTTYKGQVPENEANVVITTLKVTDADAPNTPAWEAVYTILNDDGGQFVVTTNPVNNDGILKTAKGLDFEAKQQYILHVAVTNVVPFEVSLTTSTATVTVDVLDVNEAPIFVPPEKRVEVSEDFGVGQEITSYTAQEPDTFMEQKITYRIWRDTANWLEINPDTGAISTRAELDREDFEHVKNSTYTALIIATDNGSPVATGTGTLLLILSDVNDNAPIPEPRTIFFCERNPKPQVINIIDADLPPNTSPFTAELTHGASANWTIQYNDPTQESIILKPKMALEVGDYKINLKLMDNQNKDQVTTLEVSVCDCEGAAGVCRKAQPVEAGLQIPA

Molecule	Kd [1]	Kd [2]	Kd [3]
InlA (from UniProt P0DJM0)	8 µM		
B1		2.3 µM	5.8 µM
